From article PMC8813930, “The toposiomerase IIIalpha-RMI1-RMI2 complex orients human Bloom’s syndrome helicase for efficient disruption of D-loops”

How the values were obtained:
BLMCR [1] = molecular target: T1, BLMCR (Homo sapiens, UniProt P54132 642-1290); assay: fluorescence anisotropy; no ATP; 5 mM MgCl2; 50 mM Tris-HCl pH 7.5, 50 mM NaCl, 1 mM DTT, 5 mM MgCl2, 50 µg/mL BSA, 25 °C; 10 nM labeled DNA in direct titrations; details: protein: recombinant; label: 3'-fluorescein; single strand
BLM-dWH [2] = molecular target: T2, BLM-dWH (Homo sapiens, UniProt P54132 642-1077); assay: as above; details: protein: recombinant; label: 3'-fluorescein; single strand
T2 sequence (P54132 642-1077): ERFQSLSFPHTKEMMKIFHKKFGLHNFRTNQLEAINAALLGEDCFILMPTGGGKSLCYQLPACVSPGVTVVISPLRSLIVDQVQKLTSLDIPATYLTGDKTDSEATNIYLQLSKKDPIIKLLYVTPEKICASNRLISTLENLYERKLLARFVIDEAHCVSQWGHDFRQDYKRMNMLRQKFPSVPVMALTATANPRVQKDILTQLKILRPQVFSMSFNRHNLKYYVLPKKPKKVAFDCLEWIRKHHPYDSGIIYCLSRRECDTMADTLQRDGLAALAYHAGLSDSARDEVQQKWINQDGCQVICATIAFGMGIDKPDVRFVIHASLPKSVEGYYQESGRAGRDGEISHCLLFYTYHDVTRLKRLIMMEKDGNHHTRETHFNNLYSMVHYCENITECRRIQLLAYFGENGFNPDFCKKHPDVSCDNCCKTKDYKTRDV

BLMFL [3] = molecular target: T3, BLMFL (Homo sapiens, UniProt P54132 1-1417); assay: as above; details: protein: recombinant; label: 3'-fluorescein; single strand
T3 sequence (P54132 whole entry): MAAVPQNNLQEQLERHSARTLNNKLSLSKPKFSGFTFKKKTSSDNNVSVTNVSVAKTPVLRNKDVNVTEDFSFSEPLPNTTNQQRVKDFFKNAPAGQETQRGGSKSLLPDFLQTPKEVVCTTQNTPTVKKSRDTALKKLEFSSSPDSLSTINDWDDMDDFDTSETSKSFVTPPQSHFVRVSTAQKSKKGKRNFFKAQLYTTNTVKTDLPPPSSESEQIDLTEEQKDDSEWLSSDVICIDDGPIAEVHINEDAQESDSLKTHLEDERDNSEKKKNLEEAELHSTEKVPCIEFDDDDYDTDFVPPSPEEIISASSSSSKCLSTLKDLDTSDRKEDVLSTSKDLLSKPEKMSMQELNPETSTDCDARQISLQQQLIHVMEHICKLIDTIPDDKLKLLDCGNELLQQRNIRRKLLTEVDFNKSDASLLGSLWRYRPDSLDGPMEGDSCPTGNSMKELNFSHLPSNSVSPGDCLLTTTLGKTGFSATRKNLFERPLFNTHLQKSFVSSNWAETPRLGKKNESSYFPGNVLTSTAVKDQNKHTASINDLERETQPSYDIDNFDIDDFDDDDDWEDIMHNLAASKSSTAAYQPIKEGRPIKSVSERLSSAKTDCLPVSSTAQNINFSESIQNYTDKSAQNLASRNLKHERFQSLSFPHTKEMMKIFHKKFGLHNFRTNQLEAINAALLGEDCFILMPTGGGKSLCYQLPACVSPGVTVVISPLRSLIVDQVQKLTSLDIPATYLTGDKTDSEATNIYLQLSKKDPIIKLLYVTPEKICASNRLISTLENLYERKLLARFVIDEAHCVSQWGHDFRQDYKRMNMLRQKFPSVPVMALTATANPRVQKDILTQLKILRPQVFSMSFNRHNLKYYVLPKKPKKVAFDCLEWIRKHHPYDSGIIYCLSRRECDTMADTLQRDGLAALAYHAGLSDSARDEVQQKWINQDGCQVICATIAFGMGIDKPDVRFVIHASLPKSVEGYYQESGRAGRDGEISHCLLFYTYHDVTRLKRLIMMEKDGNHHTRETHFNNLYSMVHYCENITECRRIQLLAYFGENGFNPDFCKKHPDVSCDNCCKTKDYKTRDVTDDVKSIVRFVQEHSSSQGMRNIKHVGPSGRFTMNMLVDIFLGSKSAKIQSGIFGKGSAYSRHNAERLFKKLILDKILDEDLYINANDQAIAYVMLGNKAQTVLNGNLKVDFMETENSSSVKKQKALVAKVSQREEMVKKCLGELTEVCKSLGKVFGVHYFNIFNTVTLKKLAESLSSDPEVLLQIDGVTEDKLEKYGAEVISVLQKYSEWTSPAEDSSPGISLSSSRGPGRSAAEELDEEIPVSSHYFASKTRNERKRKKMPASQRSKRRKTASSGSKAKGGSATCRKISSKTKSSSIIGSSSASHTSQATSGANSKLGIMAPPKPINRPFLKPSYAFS

BLM-dH [4] = molecular target: T4, BLM-dH (Homo sapiens, UniProt P54132 642-1191); assay: as above; details: protein: recombinant; label: 3'-fluorescein; single strand
T4 sequence (P54132 642-1191): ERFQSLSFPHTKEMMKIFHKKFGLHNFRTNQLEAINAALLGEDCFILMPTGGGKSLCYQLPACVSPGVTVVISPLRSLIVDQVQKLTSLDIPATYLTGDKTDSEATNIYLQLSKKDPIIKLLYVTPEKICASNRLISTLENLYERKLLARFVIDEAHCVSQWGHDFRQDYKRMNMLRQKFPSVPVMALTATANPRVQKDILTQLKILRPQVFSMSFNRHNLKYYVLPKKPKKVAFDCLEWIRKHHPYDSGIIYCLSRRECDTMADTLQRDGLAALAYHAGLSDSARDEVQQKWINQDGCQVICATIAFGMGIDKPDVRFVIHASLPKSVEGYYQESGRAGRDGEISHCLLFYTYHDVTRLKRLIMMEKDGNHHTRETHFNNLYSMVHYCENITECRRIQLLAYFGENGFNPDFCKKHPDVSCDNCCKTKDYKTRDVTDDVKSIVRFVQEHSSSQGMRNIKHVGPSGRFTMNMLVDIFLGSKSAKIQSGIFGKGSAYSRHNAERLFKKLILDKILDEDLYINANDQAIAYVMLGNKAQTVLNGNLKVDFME

BLMCR [5] = molecular target: T1, BLMCR; assay: competition fluorescence anisotropy; vs ss54-FLU; 5 mM MgCl2; 50 mM Tris-HCl pH 7.5, 50 mM NaCl, 1 mM DTT, 5 mM MgCl2, 50 µg/mL BSA, 25 °C; 10 nM labeled DNA in direct titrations; details: protein: recombinant, label: 5'-Cy3 on D3
BLM-dWH [6] = molecular target: T2, BLM-dWH; assay: as above; details: protein: recombinant, label: 5'-Cy3 on D3
BLMFL [7] = molecular target: T3, BLMFL; assay: as above; details: protein: recombinant, label: 5'-Cy3 on D3
BLM-dH [8] = molecular target: T4, BLM-dH; assay: as above; details: protein: recombinant, label: 5'-Cy3 on D3
[9] = molecular target: TOPOIIIalpha (TRR complex);RMI1 (TRR complex);RMI2 (TRR complex) (Homo sapiens;Homo sapiens;Homo sapiens, UniProt Q13472;Q9H9A7;Q96E14 1-1001;1-625;1-147, ||); assay: fluorescence anisotropy; 5 mM MgCl2; 50 mM Tris-HCl pH 7.5, 50 mM NaCl, 1 mM DTT, 5 mM MgCl2, 50 µg/mL BSA, 25 °C; 10 nM labeled DNA in direct titrations; details: protein: recombinant;recombinant;recombinant, tags: His;;, copies: 1;1;1, label: fluorescein on D3 (in place of Cy3)
Chain of TOPOIIIalpha (TRR complex);RMI1 (TRR complex);RMI2 (TRR complex) (Q13472 whole entry, chain 1 of 3): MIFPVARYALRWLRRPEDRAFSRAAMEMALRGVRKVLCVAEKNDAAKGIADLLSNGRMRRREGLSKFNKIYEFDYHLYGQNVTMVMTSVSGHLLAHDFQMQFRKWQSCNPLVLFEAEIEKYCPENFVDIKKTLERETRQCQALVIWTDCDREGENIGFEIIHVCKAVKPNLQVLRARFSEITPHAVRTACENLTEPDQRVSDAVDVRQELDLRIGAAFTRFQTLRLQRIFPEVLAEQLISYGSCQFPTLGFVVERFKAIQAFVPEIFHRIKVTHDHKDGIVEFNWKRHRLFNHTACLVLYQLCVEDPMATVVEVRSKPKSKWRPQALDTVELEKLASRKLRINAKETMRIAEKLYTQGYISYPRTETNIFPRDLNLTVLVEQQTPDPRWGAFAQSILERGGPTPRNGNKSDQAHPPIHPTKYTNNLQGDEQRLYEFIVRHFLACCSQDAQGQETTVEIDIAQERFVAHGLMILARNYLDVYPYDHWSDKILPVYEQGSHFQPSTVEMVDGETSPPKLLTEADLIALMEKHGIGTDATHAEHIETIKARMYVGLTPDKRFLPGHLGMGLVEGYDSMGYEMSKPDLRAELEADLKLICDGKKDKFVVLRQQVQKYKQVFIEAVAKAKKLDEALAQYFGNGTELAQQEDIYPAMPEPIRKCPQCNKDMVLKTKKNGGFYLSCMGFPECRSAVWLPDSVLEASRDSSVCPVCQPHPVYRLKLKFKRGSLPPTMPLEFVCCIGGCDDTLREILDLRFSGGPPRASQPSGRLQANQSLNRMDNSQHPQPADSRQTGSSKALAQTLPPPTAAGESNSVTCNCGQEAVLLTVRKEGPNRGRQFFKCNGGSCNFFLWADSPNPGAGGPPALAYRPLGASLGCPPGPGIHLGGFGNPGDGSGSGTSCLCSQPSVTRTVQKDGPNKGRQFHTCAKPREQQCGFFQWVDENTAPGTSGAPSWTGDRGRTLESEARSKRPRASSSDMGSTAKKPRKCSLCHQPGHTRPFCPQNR
Chain of TOPOIIIalpha (TRR complex);RMI1 (TRR complex);RMI2 (TRR complex) (Q9H9A7 whole entry, chain 2 of 3): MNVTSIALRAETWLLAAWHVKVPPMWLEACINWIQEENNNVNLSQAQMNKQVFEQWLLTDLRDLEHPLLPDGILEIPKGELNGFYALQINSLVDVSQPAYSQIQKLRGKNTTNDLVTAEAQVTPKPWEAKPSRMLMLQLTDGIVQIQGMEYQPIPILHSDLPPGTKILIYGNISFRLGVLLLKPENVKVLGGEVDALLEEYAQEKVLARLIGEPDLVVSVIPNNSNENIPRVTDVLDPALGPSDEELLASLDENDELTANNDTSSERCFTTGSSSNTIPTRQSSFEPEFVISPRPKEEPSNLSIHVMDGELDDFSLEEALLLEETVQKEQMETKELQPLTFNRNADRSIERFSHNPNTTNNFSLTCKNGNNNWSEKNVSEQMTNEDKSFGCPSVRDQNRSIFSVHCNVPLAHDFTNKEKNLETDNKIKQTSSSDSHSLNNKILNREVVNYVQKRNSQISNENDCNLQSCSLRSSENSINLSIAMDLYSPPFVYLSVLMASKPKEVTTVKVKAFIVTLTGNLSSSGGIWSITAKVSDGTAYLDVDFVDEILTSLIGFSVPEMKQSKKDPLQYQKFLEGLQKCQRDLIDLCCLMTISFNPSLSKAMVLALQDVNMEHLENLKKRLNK
Chain of TOPOIIIalpha (TRR complex);RMI1 (TRR complex);RMI2 (TRR complex) (Q96E14 whole entry, chain 3 of 3): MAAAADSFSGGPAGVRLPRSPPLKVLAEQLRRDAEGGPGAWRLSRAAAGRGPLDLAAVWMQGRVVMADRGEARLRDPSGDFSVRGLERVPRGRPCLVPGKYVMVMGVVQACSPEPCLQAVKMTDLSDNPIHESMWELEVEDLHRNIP

[10] = three-stranded D-loop-like structure (D1+D2+D3), D3 3' part invades and pairs with D1
[11] = 20 bp duplex, 3' overhang 21 nt on D3
[12] = four-stranded D-loop-like structure (D1+D2+D3+D4), D3 3' part pairs with D1, 5' part with D4

T1 sequence (P54132 642-1290): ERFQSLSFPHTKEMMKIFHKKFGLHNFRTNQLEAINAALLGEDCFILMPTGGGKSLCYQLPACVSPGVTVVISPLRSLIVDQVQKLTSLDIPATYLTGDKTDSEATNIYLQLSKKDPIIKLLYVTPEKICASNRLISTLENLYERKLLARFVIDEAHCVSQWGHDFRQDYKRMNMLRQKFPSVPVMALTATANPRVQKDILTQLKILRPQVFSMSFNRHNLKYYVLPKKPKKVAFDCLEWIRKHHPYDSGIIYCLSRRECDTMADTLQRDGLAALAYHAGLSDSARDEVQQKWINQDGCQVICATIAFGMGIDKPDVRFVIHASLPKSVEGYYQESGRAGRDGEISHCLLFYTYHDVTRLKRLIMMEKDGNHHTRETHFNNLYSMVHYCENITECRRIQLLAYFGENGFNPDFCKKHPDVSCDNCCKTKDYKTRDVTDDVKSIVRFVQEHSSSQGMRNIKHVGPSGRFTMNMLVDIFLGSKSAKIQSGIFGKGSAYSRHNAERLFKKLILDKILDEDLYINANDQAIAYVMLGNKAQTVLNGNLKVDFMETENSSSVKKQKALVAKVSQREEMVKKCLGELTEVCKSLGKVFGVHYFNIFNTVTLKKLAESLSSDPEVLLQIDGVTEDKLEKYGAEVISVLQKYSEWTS

B1: ss54-FLU (ssDNA)
DNA: TCCTTTTGATAAGAGGTCATTTTTGCGGATGGCTTAGAGCTTAATTGCGCAACG
- Kd (BLMCR [1]): 74 ± 14 nM
- Kd (BLM-dWH [2]): 520 ± 30 nM
- Kd (BLMFL [3]): 61 ± 10 nM
- Kd (BLM-dH [4]): 61 ± 16 nM

B2: DL3 (Cy3) (structured_DNA)
DNA 1: GACGCTGCCGAATTCTACCAGTGCCTTGCTAGGACATCTTTGCCCACCTGCAGGTTCACCC
DNA 2: GGGTGAACCTGCAGGTGGGCGGCTGCTCATCGTAGGTTAGTTGGTAGAATTCGGCAGCGTC
DNA 3: TAAGAGCAAGATGTTCTATAAAAGATGTCCTAGCAAGGCAC
- Kd (BLMCR [5]; [10]): < 1 nM
- Kd (BLM-dWH [6]; [10]): 56 ± 7 nM
- Kd (BLMFL [7]; [10]): 1.2 ± 0.8 nM
- Kd (BLM-dH [8]; [10]): < 1 nM

B3: 3T (Cy3) (dsDNA)
DNA 1: B2 DNA 3
DNA 2: TATAGAACATCTTGCTCTTA
- Kd (BLMCR [5]; [11]): 24 ± 2 nM
- Kd (BLM-dWH [6]; [11]): 430 ± 70 nM
- Kd (BLMFL [7]; [11]): 10 ± 3 nM
- Kd (BLM-dH [8]; [11]): 39 ± 3 nM

B4: DL4 (fluorescein) (structured_DNA)
DNA 1: B2 DNA 1
DNA 2: B2 DNA 2
DNA 3: B2 DNA 3
DNA 4: TATAGAACATCTTGCTCTTA
- Kd ([9]; four-stranded D-loop-like structure (D1+D2+D3+D4)): 488 ± 70 nM

B5: DL3 (fluorescein) (structured_DNA)
DNA 1: B2 DNA 1
DNA 2: B2 DNA 2
DNA 3: B2 DNA 3
- Kd ([9]; three-stranded D-loop-like structure (D1+D2+D3)): 13 ± 1 nM

B6: DL4 (Cy3) (structured_DNA)
DNA 1: B2 DNA 1
DNA 2: B2 DNA 2
DNA 3: B2 DNA 3
DNA 4: TATAGAACATCTTGCTCTTA
- Kd (BLMCR [5]; [12]): < 1 nM
- Kd (BLM-dWH [6]; [12]): 56 ± 13 nM
- Kd (BLMFL [7]; [12]): 2.3 ± 1.3 nM
- Kd (BLM-dH [8]; [12]): < 1 nM
